# Laboratory results published in paper PMC11912399.
# Target: CrImpαΔIBB (Chlamydomonas reinhardtii importin α IPA1, Cre04.g215850, lacking the autoinhibitory IBB domain) (Chlamydomonas reinhardtii)
# Test: MST
row,Substance,Kd [nM]
1,DN Cas9 (Cas9 with the VirD2^O NLS fused to its N-terminus) (enzyme),4.48
2,SN Cas9 (Cas9 with the SV40TAg NLS fused to its N-terminus) (enzyme),11.4

# Target: CrImpαΔIBB (Chlamydomonas reinhardtii importin α IPA1, Cre04.g215850, lacking the autoinhibitory IBB domain) (Chlamydomonas reinhardtii)
# Test: ELISA
row,Substance,Kd [nM]
1,DC Cas9 (Cas9 with the VirD2^O NLS fused to its C-terminus) (enzyme),5.01
2,DN Cas9 (Cas9 with the VirD2^O NLS fused to its N-terminus) (enzyme),4.79
3,D^K1AR2AN Cas9 (DN Cas9 with K1A and R2A in the VirD2^O NLS) (enzyme),13.3
4,"D^K1AR2AR15AN Cas9 (DN Cas9 with K1A, R2A and R15A in the VirD2^O NLS) (enzyme)",42.6
5,D^NopN Cas9 (Cas9 with the nopaline-type VirD2^N NLS fused to its N-terminus) (enzyme),7.88
6,D^R15AN Cas9 (DN Cas9 with R15A in the VirD2^O NLS) (enzyme),15.2
7,EC Cas9 (Cas9 with the VirE2^O NLS fused to its C-terminus) (enzyme),6.9
8,EN Cas9 (Cas9 with the VirE2^O NLS fused to its N-terminus) (enzyme),7.81
9,PN Cas9 (Cas9 with the putative endogenous CrPAP1 NLS fused to its N-terminus) (enzyme),17.1
10,SC Cas9 (Cas9 with the SV40TAg NLS fused to its C-terminus) (enzyme),9.21
11,SN Cas9 (Cas9 with the SV40TAg NLS fused to its N-terminus) (enzyme),8.73
